# Reference: paper PMC11965310, “Inhibition of tau neuronal internalization using anti-tau single domain antibodies” (Nature Communications, 2025)
# T1: tau[369–381] C-terminal peptide (Homo sapiens)
# T1 construct: also called tau-C-ter peptide; tau-Cter peptide
# T1 chain: KKIETHKLTFREN
# What was measured:
# Details in all cases: both partners purified
# tauMTBD = molecular target: T2, tauMTBD (Homo sapiens, UniProt P10636, biotin (NHS-biotin, ratio 1:0.5) when immobilised in SPR; Atto488 NHS ester in the uptake assay); assay: SPR; biotinylated tau2N4R, tau1N4R or tauMTBD captured on a streptavidin (SA) chip; VHHs without tag as analytes, 0.0625-4 μM, single-cycle kinetics; 25 °C, HBS EP+; 1:1 Langmuir model
# T2 construct: also called tauMTBD fragment; source: E. coli BL21 (DE3), purified (heating at 75 °C, cation exchange)
# T2 sequence (P10636 whole entry, looked up, the tested form may be a part): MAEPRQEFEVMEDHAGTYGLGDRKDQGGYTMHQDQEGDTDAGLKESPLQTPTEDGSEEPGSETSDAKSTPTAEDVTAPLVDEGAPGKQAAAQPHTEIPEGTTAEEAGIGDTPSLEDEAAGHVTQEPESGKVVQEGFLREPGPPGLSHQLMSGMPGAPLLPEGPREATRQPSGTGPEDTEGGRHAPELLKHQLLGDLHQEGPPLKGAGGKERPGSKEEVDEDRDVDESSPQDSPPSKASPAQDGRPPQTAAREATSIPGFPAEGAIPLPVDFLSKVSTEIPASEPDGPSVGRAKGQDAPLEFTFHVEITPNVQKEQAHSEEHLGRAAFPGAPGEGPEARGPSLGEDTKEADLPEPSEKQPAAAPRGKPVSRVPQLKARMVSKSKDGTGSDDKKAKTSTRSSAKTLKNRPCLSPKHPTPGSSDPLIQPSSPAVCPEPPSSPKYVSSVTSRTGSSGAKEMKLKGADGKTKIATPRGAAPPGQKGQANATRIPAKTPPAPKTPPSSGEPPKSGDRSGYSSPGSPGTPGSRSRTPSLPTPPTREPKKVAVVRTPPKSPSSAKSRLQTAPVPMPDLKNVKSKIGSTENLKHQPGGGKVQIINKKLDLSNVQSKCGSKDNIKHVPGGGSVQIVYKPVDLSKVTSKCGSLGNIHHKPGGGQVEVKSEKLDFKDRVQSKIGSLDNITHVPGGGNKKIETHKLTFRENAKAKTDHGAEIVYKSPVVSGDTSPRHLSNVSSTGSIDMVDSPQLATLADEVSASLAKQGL
# tau2N4R = molecular target: T3, tau2N4R (Homo sapiens, UniProt P10636-8, biotin (NHS-biotin, 3 molar excess) when immobilised in SPR; 15N-labelled in NMR); assay: as above
# T3 construct: tau protein, isoform 2N4R, the largest tau isoform; Expressed from pET15b-tau2N4R; also called full-length tau2N4R; largest tau isoform; source: E. coli BL21 (DE3), purified (heating at 75 °C, cation exchange)
# T3 sequence (P10636 other isoform, or with tags, fused parts or gaps): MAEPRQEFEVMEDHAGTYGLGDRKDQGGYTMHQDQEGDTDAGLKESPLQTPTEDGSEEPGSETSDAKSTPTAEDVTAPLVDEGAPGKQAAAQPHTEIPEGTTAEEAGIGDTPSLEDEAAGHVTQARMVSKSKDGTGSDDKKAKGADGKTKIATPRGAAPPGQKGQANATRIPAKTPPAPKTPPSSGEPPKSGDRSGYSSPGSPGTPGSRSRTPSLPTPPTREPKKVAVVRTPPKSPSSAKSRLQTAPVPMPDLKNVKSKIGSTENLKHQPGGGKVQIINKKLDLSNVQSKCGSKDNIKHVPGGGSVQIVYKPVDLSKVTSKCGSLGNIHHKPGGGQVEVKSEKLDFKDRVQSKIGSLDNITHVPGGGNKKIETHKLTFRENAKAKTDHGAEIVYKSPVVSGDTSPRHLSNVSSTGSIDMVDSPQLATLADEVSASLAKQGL
# tau1N4R = molecular target: T4, tau1N4R (Homo sapiens, UniProt P10636-7, biotin (NHS-biotin, 3 molar excess) when immobilised in SPR; Alexa Fluor 546 C5-maleimide on its two native cysteine residues in the uptake assay); assay: as above
# T4 construct: tau protein, isoform 1N4R; Used without a stated label as analyte on LRP1 cluster III; also called full-length tau1N4R; monomeric tau1N4R; source: E. coli BL21 (DE3), purified (heating at 75 °C, cation exchange)
# T4 sequence (P10636 other isoform, or with tags, fused parts or gaps): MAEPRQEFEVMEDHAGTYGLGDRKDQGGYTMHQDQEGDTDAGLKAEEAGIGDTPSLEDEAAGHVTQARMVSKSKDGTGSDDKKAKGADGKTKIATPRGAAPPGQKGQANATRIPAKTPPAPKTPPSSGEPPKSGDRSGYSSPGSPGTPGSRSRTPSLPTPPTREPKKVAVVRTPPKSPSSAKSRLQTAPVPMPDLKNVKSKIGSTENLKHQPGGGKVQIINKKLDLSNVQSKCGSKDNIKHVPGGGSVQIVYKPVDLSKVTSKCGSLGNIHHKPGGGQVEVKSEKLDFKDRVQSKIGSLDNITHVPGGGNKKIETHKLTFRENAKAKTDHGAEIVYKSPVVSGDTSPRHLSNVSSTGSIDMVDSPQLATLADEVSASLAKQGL
# [1] = molecular target: T1, tau[369–381] C-terminal peptide; assay: SPR; biotinylated VHH-Cys captured on SA chip; tau[369-381] peptide as analyte, multi-cycle kinetics; 25 °C, HBS EP+; kinetic analysis, 1:1 Langmuir model
# [2] = molecular target: T1, tau[369–381] C-terminal peptide; assay: SPR; same data as the multi-cycle kinetics; steady-state analysis of maximum responses, one-site specific binding model
# [3] = molecular target: T1, tau[369–381] C-terminal peptide; assay: SPR; biotinylated VHH-Cys captured on SA chip; tau[369-381] peptide as analyte, multi-cycle kinetics; 25 °C, HBS EP+; kinetic analysis, 1:1 Langmuir model
# [4] = molecular target: T1, tau[369–381] C-terminal peptide; assay: AlphaScreen or HTRF; 6His-VHH bound by anti-6His antibody-Terbium (1.5 nM) and 6His-VHH bound by anti-6His antibody-D2 (20 nM); tau-Cter peptide 32 nM to 100 µM; 1 h at room temperature
# [5] = molecular target: T1, tau[369–381] C-terminal peptide; assay: SPR; same data as the multi-cycle kinetics; steady-state analysis of maximum responses, one-site specific binding model
Binder,binding result (tauMTBD),Kd (tau2N4R) [nM],koff (tau2N4R) [s⁻¹],kon (tau2N4R) [M⁻¹ s⁻¹],Kd (tau1N4R) [nM],koff (tau1N4R) [s⁻¹],kon (tau1N4R) [M⁻¹ s⁻¹],Kd [1] [nM],koff [1] [s⁻¹],kon [1] [M⁻¹ s⁻¹],Kd [2] [nM],stoichiometry N [2],Kd [3] [nM],EC50 [4] [nM],Kd [5] [nM]
"biotinylated VHH H3-2 with a cysteine at the C-terminus (VHH, as the VHH chain of m8; additional C-terminal cysteine; source: E. coli periplasm, purified (IMAC, SEC, TEV cleavage, second IMAC); not shown: His6, N-terminal, cleaved) VHH: EVQLQASGGGFVQPGGSLRLSCAASGYTSGDEIMGWFRQAPGKEREFVSAISWQSGTSTYYADSVKGRFTISRDNSKNTVYLQMNSLRAEDTATYYCAPMTLAETYYEWLISGYWGQGTQVTVSS",–,–,–,–,–,–,–,280,0.071,192000,297,0.41,297 to 380,–,–
"6His-VHH H3-2 (VHH, as the VHH chain of m8; The construct has a TEV site between the 6-His tag and the VHH; also called 6Histag-H3-2; source: E. coli periplasm, purified; not shown: His6, N-terminal, kept) VHH: EVQLQASGGGFVQPGGSLRLSCAASGYTSGDEIMGWFRQAPGKEREFVSAISWQSGTSTYYADSVKGRFTISRDNSKNTVYLQMNSLRAEDTATYYCAPMTLAETYYEWLISGYWGQGTQVTVSS",–,–,–,–,–,–,–,–,–,–,–,–,–,2700,–
"VHH F8-2 (VHH, source: E. coli periplasm, purified (IMAC, SEC, TEV cleavage, second IMAC); not shown: His6, N-terminal, cleaved) VHH: EVQLQASGGGFVQPGGSLRLSCAASGGTSYWDGMGWFRQAPGKEREFVSAISGRGNIGTYYADSVKGRFTISRDNSKNTVYLQMNSLRAEDTATYYCAAFRHEVHGSMRHEWEVIKYWGQGTQVTVSS",–,753,0.04,53100,740,0.0425,57500,–,–,–,–,–,–,–,–
"biotinylated VHH E2-2 with a cysteine at the C-terminus (VHH, as the VHH chain of m11; additional C-terminal cysteine; source: E. coli periplasm, purified (IMAC, SEC, TEV cleavage, second IMAC); not shown: His6, N-terminal, cleaved) VHH: EVQLQASGGGFVQPGGSLRLSCAASGSTYDFDAMGWFRQAPGKEREFVSAISGDADLARYYADSVKGRFTISRDNSKNTVYLQMNSLRAEDTATYYCAAFRHEVHGSMRHEWEVIKYWGQGTQVTVSS",–,–,–,–,–,–,–,820,0.124,154000,578,0.45,–,–,518 to 820

# Second part, the binder after the results:
binding result (tauMTBD),Kd (tau2N4R) [nM],koff (tau2N4R) [s⁻¹],kon (tau2N4R) [M⁻¹ s⁻¹],Kd (tau1N4R) [nM],koff (tau1N4R) [s⁻¹],kon (tau1N4R) [M⁻¹ s⁻¹],Kd [1] [nM],koff [1] [s⁻¹],kon [1] [M⁻¹ s⁻¹],Kd [2] [nM],stoichiometry N [2],Kd [3] [nM],EC50 [4] [nM],Kd [5] [nM],Binder
no binding (tested: 4 μM),8.9,0.0056,630000,11,0.006,554000,–,–,–,–,–,–,–,–,"VHH H3-2 (VHH, From the Nali-H1 VHH library; Forms a swapped dimer in the crystal and mostly a dimer in SEC at 20 µM; Coupled to 10 nm gold beads for electron microscopy; source: E. coli periplasm, purified (IMAC, SEC, TEV cleavage, second IMAC); not shown: His6, N-terminal, cleaved) VHH: EVQLQASGGGFVQPGGSLRLSCAASGYTSGDEIMGWFRQAPGKEREFVSAISWQSGTSTYYADSVKGRFTISRDNSKNTVYLQMNSLRAEDTATYYCAPMTLAETYYEWLISGYWGQGTQVTVSS"
no binding (tested: 4 μM),84,0.0038,44900,96,0.0045,46700,–,–,–,–,–,–,–,–,"VHH E2-2 (VHH, From the Nali-H1 VHH library; source: E. coli periplasm, purified (IMAC, SEC, TEV cleavage, second IMAC); not shown: His6, N-terminal, cleaved) VHH: EVQLQASGGGFVQPGGSLRLSCAASGSTYDFDAMGWFRQAPGKEREFVSAISGDADLARYYADSVKGRFTISRDNSKNTVYLQMNSLRAEDTATYYCAAFRHEVHGSMRHEWEVIKYWGQGTQVTVSS"
